What all share (assay): holdup assay
Design in all cases: key: below the threshold = too weak to quantify, mostly under pKd 3.1 to 4
What all share (details): plain residues with an end cap or a label only (N-terminal biotin on a linker: ttds)

Experiment [1] deals with NHERF4_3, Q86UT5.
The target of experiment [2] is O00233.
Experiment [3] has as its target O15021.
Experiment [4] has as its target O43166.
Experiment [5] concerns the target O60759.
Experiment [6] addresses O75970.
For experiment [7], the target named is Q13009.
The target of experiment [8] is Q5TCQ9.
For experiment [9], the target named is Q6ZWJ1.
Experiment [10] deals with Q70Z35.
Experiment [11] deals with Q8IUC4.
Experiment [12] deals with Q8TEW0.
Experiment [13] deals with Q92614.
The target of experiment [14] is Q96FS4.
For experiment [15], the target named is Q96HC4.
In experiment [16] the target is Q96JB8.
Experiment [17] has as its target Q96JY6.
For experiment [18], the target named is Q96SB3.
Experiment [19] deals with Q9C0E4.
For experiment [20], the target named is Q9H190.
The target of experiment [21] is Q9NPB6.
Experiment [22] deals with Q9NR12.
Experiment [23] concerns the target Q9P227.
The target of experiment [24] is Q9UDY2.
Experiment [25] has as its target Q9ULJ8.
Experiment [26] concerns the target Q9UMS6.
Experiment [27] addresses Q9Y3R0.
The target in experiment [28] is LNX1_4, Q8TBB1.
LNX1_4, Q8TBB1, sequence (Q8TBB1 631-726): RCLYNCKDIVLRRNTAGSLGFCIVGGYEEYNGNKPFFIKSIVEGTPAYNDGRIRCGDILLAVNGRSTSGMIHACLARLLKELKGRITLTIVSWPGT
Experiment [29] addresses T1, LNX2_1, Q8N448.
T1 sequence (Q8N448 228-328, limits assumed, looked up): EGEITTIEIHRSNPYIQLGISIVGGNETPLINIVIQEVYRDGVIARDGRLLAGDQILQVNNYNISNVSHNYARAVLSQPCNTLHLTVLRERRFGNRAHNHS

As usually defined, the pKd is the Kd on a negative log10 scale, so that one unit is a factor of ten.

NHERF4_3, Q86UT5, sequence (Q86UT5 325-412): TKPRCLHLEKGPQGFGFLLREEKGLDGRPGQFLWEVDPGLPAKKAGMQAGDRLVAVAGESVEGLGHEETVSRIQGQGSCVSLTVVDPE

Regarding RSLEEEESQL [GRASP, Q7Z6J2], the pKd entry in experiment [1], in experiment [2], in experiment [3], in experiment [4], in experiment [5] and in [6] was “below the threshold” throughout. Further, the pKd entry in [7], in [8], in [9], in experiment [10], in experiment [11] and in [12] was “below the threshold” throughout. In addition, the negative-log Kd (pKd) result in [13], in experiment [14], in [15], in experiment [16], in experiment [17] and in [18] was “below the threshold” each time. For the same molecule, the pKd entry in experiment [19], in [20], in experiment [21], in experiment [22], in experiment [23] and in experiment [24] was “below the threshold” each time. In addition, the pKd result in [25], in experiment [26] and in experiment [27] was “below the threshold” in each case.
Regarding PKTPPTDTSV [KIR3DL3, Q8N743], the pKd result in experiment [2], in [3], in experiment [4], in experiment [5], in [6] and in experiment [7] was “below the threshold” each time. In addition, the pKd result in experiment [8], in experiment [9], in experiment [10], in experiment [11], in [12] and in experiment [13] was “below the threshold” in each case. Moreover, the negative-log Kd (pKd) result in experiment [14], in experiment [15], in experiment [16], in experiment [17], in [18] and in experiment [19] was “below the threshold” each time. Also, the negative-log Kd (pKd) entry in experiment [20], in experiment [21], in experiment [22], in experiment [23], in [24] and in experiment [25] was “below the threshold” in each case. For the same molecule, the negative-log Kd (pKd) entry in experiment [26] and in experiment [27] was “below the threshold” each time.
For the molecule SRPQRTQTQV [HPV67-E6, A4U7F2], in experiment [1], the pKd entry is given as “below the threshold”.
Consider STLTIFETAL [ABCC4, O15439], for which the pKd entry in [2], in experiment [3], in experiment [4], in experiment [5], in experiment [6] and in [7] was “below the threshold” throughout. The pKd result in experiment [8], in experiment [9], in experiment [10], in [11], in experiment [12] and in [13] was “below the threshold” throughout. Besides, the pKd entry in [14], in experiment [15], in experiment [16], in [17], in experiment [18] and in experiment [19] was “below the threshold” throughout. Besides, the negative-log Kd (pKd) result in [20], in experiment [21], in experiment [22], in experiment [23], in [24] and in [25] was “below the threshold” in each case. The pKd entry in experiment [26] and in experiment [27] was “below the threshold” throughout.
Regarding QSARYRDTEL [TJP2, Q9UDY2], the pKd entry in experiment [1], in experiment [2], in [3], in [4], in experiment [5] and in [6] was “below the threshold” each time. In addition, the negative-log Kd (pKd) result in experiment [7], in [8], in experiment [9], in [10], in [11] and in experiment [12] was “below the threshold” in each case. Moreover, the negative logarithm of the Kd (pKd) entry in [13], in [14], in [15], in experiment [16], in experiment [17] and in experiment [18] was “below the threshold” throughout. For the same molecule, the negative logarithm of the Kd (pKd) result in [19], in experiment [20], in experiment [21], in [22], in experiment [23] and in [24] was “below the threshold” in each case. Besides, the negative-log Kd (pKd) result in experiment [25], in experiment [26] and in experiment [27] was “below the threshold” throughout.
In the case of SSRTRRETQL [HPV16-E6, P03126], the values for the negative logarithm of the Kd (pKd) result in experiment [28], in [29] and in experiment [1] were “below the threshold”, “below the threshold” and 4.13, respectively.

Values taken from article PMC9482650, “Quantitative fragmentomics allow affinity mapping of interactomes” (Nature Communications, 2022).
